Experimental findings from patent publication US20100151573A1 (published 2010) are described below.

Test [1] addresses T1, Recombinant human P-selectin/Fc chimera covalently coupled to DSPE-PEG2000 maleimide and inserted into … (human, UniProt P16109 42-771, sulfhydryl groups introduced at primary amines with Traut's reagent (2-iminothiolane) and linked to the maleimide group of DSPE-PEG2000; positions not stated).
T1 construct: Bought rhP/Fc (R&D Systems); also called rhP/Fc-DSPE-PEG2000 maleimide; PS-DSPE-PEG NP; Fc part of the bought chimera not given
T1 sequence (looked up): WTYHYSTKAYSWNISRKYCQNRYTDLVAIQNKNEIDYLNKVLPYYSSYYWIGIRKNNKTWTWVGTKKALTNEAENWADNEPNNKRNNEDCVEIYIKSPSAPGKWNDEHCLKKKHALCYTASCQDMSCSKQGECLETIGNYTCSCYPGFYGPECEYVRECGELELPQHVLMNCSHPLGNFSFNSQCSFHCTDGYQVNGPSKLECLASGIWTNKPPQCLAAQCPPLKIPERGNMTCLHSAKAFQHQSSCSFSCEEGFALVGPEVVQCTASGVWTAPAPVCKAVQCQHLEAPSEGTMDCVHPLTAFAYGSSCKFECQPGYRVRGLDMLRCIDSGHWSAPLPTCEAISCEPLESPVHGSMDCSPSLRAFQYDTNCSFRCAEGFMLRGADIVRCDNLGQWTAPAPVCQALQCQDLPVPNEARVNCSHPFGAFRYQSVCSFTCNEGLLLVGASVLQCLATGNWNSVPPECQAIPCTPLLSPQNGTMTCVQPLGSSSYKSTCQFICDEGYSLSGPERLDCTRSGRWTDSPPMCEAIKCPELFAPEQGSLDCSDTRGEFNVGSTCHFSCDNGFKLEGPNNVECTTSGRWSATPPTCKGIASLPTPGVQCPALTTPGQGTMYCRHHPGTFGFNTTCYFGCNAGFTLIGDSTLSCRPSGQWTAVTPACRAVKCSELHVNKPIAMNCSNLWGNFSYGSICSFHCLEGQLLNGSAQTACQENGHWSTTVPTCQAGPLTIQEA
Nature of the test: perfusion of HL60 cells through nanoparticle coated microtube, microscopy. How it is done: P-selectin nanoparticles were coated onto the surface of microrenathane tubing for 2 h at RT, and then perfusion experiments conducted. (a) and (b) were taken before perfusion, (c) and (d) were taken after perfusion but before the cells were released. (e) and (f) were taken after the adherent cells were released from the microtubing. In (g) and (h), HL60 cells were perfused through the P-selectin coated tube. In (i) and (j), cells were pre-incubated with anti-PSGL-1 for 1 h at RT and then perfused through the P-selectin coated tube. In (k) and (l), the perfused cells were MCF7. In (m) and (n), the P-selectin nanoparticles were incubated with anti-P-selectin for 1 h at RT and then applied to the microtube coating. In (o) and (p), P-selectin was replaced with IgG to construct the coating nanoparticles. The pictures were taken after cellular perfusion but before the cells were released from the surface. [III]. Nanoparticles alone could not (q, r, s) but P-selectin nanoparticles could (t, u, v) deliver Cy3-siRNA into HL60 cells under rolling conditions in the microtubing. q and t were taken in epifluorescence mode, r and u were taken in brightfield mode, and s and v are the merge of q and r, and […]. TRITC represents Tetramethyl Rhodamine Iso-Thiocyanate filter. […]

The target of test [2] is T2, Recombinant human P-selectin/Fc chimera (rhP/Fc), not conjugated, adsorbed on microtubing (human, UniProt P16109 42-771).
T2 construct: Microtubing pre-incubated with rhP/Fc at 60 ug/ml in PBS for 2 h, then coated with non-targeting nanoparticles; Fc part of the bought chimera not given
T2 sequence (looked up): T1 sequence (looked up)
As to the kind of experiment: perfusion of HL60 cells through rhP/Fc coated microtube.

B1: P-selectin glycoprotein ligand-1 (PSGL-1) on HL60 cells (receptor, UniProt Q14242 42-412, looked up)
chain: QATEYEYLDYDFLPETEPPEMLRNSTDTTPLTGPGTPESTTVEPAARRSTGLDAGGAVTELTTELANMGNLSTDSAAMEIQTTQPAATEAQTTQPVPTEAQTTPLAATEAQTTRLTATEAQTTPLAATEAQTTPPAATEAQTTQPTGLEAQTTAPAAMEAQTTAPAAMEAQTTPPAAMEAQTTQTTAMEAQTTAPEATEAQTTQPTATEAQTTPLAAMEALSTEPSATEALSMEPTTKRGLFIPFSVSSVTHKGIPMAASNLSVNYPVGAPDHISVKQCLLAILILALVATIFFVCTVVLAVRLSRKGHMYPVRNYSPTEMVCISSLLPDGGEGPSATANGGLSKAKSPGLTPEPREDREGDDLTLHSFLP
notes: whole, on cells; also called P-selectin receptor; PSGL-1 receptors in HL60 cells
In the case of B1, the binding result in test [1] and in test [2] was “binds” throughout.
